Patent publication US20070077617

How the values were obtained:
[1] = target: fusion protein PRF
[2] = target: fusion protein PRN
[3] = target: fusion protein PRA
[4] = target: fusion protein PRL
[5] = target: fusion protein PRH
[6] = target: fusion protein PRI
[7] = target: fusion protein PRS
[8] = target: fusion protein PRQ
[9] = target: fusion protein PRW
[10] = target: fusion protein PRE
[11] = target: fusion protein PRD
[12] = target: fusion protein PRK
[13] = target: fusion protein PRP
[14] = target: fusion protein PRT
[15] = target: fusion protein PRM
[16] = target: fusion protein PRR
[17] = target: fusion protein PRC
[18] = target: fusion protein PRG
[19] = target: fusion protein PRY
Chain of fusion protein PRY (chain, as listed by the source): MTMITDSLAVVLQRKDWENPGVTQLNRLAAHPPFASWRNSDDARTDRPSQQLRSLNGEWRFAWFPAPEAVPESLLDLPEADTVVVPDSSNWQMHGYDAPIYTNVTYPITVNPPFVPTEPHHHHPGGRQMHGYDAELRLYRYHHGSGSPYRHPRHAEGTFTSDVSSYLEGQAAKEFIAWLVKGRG

Chain of fusion protein PRH (chain, as listed by the source): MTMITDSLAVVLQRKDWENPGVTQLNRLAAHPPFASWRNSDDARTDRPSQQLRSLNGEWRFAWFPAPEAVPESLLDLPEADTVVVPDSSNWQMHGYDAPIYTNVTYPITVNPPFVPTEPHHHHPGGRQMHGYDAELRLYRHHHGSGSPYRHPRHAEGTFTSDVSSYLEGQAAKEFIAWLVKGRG
Chain of fusion protein PRD (chain, as listed by the source): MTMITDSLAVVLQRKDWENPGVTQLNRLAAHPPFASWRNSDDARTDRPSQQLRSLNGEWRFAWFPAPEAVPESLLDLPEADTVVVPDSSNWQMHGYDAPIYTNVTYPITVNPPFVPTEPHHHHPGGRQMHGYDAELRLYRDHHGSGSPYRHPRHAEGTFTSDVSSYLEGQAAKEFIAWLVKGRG
Chain of fusion protein PRE (chain, as listed by the source): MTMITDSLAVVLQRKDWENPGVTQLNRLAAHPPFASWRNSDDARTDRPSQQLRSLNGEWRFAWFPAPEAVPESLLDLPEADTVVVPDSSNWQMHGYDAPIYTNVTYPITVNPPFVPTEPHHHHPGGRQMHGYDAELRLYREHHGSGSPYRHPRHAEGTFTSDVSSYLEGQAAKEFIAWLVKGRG
Chain of fusion protein PRA (chain, as listed by the source): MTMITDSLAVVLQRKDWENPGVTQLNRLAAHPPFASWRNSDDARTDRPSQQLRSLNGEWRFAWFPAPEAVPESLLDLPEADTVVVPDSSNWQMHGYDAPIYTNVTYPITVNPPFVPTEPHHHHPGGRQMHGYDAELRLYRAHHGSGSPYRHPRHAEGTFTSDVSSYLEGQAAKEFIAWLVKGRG
Chain of fusion protein PRR (chain, as listed by the source): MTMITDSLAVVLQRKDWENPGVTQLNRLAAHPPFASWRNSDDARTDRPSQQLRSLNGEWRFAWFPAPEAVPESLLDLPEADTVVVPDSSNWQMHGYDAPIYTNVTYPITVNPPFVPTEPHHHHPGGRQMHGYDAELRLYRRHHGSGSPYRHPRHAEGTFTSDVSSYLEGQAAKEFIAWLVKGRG
Chain of fusion protein PRI (chain, as listed by the source): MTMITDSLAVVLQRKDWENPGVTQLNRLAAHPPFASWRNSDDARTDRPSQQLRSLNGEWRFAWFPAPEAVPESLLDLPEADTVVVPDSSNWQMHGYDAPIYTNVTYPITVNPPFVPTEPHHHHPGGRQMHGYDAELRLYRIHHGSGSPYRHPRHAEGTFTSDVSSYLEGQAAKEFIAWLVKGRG
Chain of fusion protein PRW (chain, as listed by the source): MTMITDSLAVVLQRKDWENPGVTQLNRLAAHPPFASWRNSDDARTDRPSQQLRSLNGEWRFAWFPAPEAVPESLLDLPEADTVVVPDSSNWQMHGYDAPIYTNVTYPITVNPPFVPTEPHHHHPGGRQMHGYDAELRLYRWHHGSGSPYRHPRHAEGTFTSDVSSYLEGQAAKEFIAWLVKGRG
Chain of fusion protein PRG (chain, as listed by the source): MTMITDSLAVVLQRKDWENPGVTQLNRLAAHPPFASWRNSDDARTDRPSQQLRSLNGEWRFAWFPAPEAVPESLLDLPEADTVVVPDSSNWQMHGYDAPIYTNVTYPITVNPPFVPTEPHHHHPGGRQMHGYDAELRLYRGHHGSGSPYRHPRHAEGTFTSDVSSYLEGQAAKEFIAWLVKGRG
Chain of fusion protein PRS (chain, as listed by the source): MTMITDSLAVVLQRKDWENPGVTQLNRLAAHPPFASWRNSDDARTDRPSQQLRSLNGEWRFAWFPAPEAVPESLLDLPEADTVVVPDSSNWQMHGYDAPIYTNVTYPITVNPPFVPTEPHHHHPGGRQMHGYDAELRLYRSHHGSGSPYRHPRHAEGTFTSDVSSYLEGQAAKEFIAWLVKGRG
Chain of fusion protein PRC (chain, as listed by the source): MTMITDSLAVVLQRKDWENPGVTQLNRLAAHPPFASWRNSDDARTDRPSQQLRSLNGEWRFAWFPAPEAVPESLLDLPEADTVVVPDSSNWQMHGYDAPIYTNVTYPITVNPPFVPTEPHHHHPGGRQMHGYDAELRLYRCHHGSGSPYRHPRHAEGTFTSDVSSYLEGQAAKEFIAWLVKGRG
Chain of fusion protein PRT (chain, as listed by the source): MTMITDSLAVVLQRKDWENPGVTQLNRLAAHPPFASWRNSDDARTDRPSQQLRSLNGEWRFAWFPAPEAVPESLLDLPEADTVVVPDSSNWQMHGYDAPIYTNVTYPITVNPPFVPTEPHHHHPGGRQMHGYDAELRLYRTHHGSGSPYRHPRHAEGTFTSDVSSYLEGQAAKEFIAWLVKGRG
Chain of fusion protein PRM (chain, as listed by the source): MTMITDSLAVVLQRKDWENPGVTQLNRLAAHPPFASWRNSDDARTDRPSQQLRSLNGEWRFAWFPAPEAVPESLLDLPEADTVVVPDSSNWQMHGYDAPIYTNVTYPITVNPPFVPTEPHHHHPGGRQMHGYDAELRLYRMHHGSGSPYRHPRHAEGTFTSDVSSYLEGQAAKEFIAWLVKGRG
Chain of fusion protein PRN (chain, as listed by the source): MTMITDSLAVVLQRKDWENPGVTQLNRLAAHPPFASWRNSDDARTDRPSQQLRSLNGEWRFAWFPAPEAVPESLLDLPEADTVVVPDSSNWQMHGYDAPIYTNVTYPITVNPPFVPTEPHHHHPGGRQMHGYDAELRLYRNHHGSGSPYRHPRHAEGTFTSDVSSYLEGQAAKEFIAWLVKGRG
Chain of fusion protein PRF (chain, as listed by the source): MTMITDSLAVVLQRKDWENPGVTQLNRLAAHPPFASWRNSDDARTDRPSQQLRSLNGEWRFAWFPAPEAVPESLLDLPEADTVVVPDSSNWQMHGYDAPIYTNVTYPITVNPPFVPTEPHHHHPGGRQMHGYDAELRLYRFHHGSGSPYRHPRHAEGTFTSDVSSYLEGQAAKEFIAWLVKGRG
Chain of fusion protein PRQ (chain, as listed by the source): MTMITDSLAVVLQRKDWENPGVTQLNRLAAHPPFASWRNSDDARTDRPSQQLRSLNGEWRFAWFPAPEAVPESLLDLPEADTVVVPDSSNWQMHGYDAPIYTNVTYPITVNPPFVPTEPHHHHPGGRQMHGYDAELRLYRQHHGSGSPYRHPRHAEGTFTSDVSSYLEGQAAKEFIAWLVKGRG
Chain of fusion protein PRK (chain, as listed by the source): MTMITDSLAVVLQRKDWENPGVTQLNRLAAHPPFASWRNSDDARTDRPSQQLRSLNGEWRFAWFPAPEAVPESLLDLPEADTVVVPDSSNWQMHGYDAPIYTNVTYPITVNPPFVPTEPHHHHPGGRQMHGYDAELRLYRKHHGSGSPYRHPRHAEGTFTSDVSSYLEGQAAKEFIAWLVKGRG
Chain of fusion protein PRL (chain, as listed by the source): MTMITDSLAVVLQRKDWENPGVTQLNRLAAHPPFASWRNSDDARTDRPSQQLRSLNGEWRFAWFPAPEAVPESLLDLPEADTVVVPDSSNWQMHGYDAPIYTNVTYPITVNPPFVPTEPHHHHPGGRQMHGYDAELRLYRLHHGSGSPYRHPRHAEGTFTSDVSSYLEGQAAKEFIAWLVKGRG

| Protein | relative cleavage efficiency [1] | relative cleavage efficiency [2] | relative cleavage efficiency [3] | relative cleavage efficiency [4] | relative cleavage efficiency [5] | relative cleavage efficiency [6] | relative cleavage efficiency [7] | relative cleavage efficiency [8] | relative cleavage efficiency [9] | relative cleavage efficiency [10] | relative cleavage efficiency [11] | relative cleavage efficiency [12] | relative cleavage efficiency [13] | relative cleavage efficiency [14] | relative cleavage efficiency [15] | relative cleavage efficiency [16] | relative cleavage efficiency [17] | relative cleavage efficiency [18] | relative cleavage efficiency [19] |
| --- | --- | --- | --- | --- | --- | --- | --- | --- | --- | --- | --- | --- | --- | --- | --- | --- | --- | --- | --- |
| OmpT protease variant OmpT D97F (protein) STETLSFTPDNINADISLGTLSGKTKERVYLAEEGGRKVSQLDWKFNNAAIIKGAINWDLMPQISIGAAGWTTLGSRGGNMVDQDWMDSSNPGTWTFESRHPDTQLNYANEFDLNIKGWLLNEPNYRLGLMAGYQESRYSFTARGGSYIYSSEEGFRDDIGSFPNGERAIGYKQRFKMPYIGLTGSYRYEDFELGGTFKYSGWVESSDNDEHYDPGKRITYRSKVKDQNYYSVAVNAGYYVTPNAKVYVEGAWNRVTNKKGNTSLYDHNNNTSDYSKNGAGIENYNFITTAGLKYTF | < 3% | < 3% | 3.1% | less than 3% | less than 3% | < 3% | < 3% | less than 3% | less than 3% | less than 3% | less than 3% | < 3% | less than 3% | < 3% | < 3% | < 3% | < 3% | less than 3% | < 3% |
| OmpT protease variant OmpT D97N (protein) STETLSFTPDNINADISLGTLSGKTKERVYLAEEGGRKVSQLDWKFNNAAIIKGAINWDLMPQISIGAAGWTTLGSRGGNMVDQDWMDSSNPGTWTNESRHPDTQLNYANEFDLNIKGWLLNEPNYRLGLMAGYQESRYSFTARGGSYIYSSEEGFRDDIGSFPNGERAIGYKQRFKMPYIGLTGSYRYEDFELGGTFKYSGWVESSDNDEHYDPGKRITYRSKVKDQNYYSVAVNAGYYVTPNAKVYVEGAWNRVTNKKGNTSLYDHNNNTSDYSKNGAGIENYNFITTAGLKYTF | < 3% | < 3% | 3.8% | less than 3% | less than 3% | < 3% | 4.1% | less than 3% | less than 3% | less than 3% | less than 3% | < 3% | less than 3% | < 3% | < 3% | < 3% | < 3% | less than 3% | < 3% |
| OmpT protease variant OmpT D97T (protein) STETLSFTPDNINADISLGTLSGKTKERVYLAEEGGRKVSQLDWKFNNAAIIKGAINWDLMPQISIGAAGWTTLGSRGGNMVDQDWMDSSNPGTWTTESRHPDTQLNYANEFDLNIKGWLLNEPNYRLGLMAGYQESRYSFTARGGSYIYSSEEGFRDDIGSFPNGERAIGYKQRFKMPYIGLTGSYRYEDFELGGTFKYSGWVESSDNDEHYDPGKRITYRSKVKDQNYYSVAVNAGYYVTPNAKVYVEGAWNRVTNKKGNTSLYDHNNNTSDYSKNGAGIENYNFITTAGLKYTF | 3.7% | < 3% | 6.8% | less than 3% | less than 3% | < 3% | 7.4% | less than 3% | less than 3% | less than 3% | less than 3% | < 3% | less than 3% | < 3% | < 3% | < 3% | 4.6% | less than 3% | < 3% |
| OmpT protease variant OmpT D97S (protein) STETLSFTPDNINADISLGTLSGKTKERVYLAEEGGRKVSQLDWKFNNAAIIKGAINWDLMPQISIGAAGWTTLGSRGGNMVDQDWMDSSNPGTWTSESRHPDTQLNYANEFDLNIKGWLLNEPNYRLGLMAGYQESRYSFTARGGSYIYSSEEGFRDDIGSFPNGERAIGYKQRFKMPYIGLTGSYRYEDFELGGTFKYSGWVESSDNDEHYDPGKRITYRSKVKDQNYYSVAVNAGYYVTPNAKVYVEGAWNRVTNKKGNTSLYDHNNNTSDYSKNGAGIENYNFITTAGLKYTF | < 3% | < 3% | 4% | less than 3% | less than 3% | < 3% | < 3% | less than 3% | less than 3% | less than 3% | less than 3% | < 3% | less than 3% | < 3% | < 3% | < 3% | 3.1% | less than 3% | < 3% |
| OmpT protease variant OmpT D97C (protein) STETLSFTPDNINADISLGTLSGKTKERVYLAEEGGRKVSQLDWKFNNAAIIKGAINWDLMPQISIGAAGWTTLGSRGGNMVDQDWMDSSNPGTWTCESRHPDTQLNYANEFDLNIKGWLLNEPNYRLGLMAGYQESRYSFTARGGSYIYSSEEGFRDDIGSFPNGERAIGYKQRFKMPYIGLTGSYRYEDFELGGTFKYSGWVESSDNDEHYDPGKRITYRSKVKDQNYYSVAVNAGYYVTPNAKVYVEGAWNRVTNKKGNTSLYDHNNNTSDYSKNGAGIENYNFITTAGLKYTF | 4.6% | < 3% | 6.2% | less than 3% | less than 3% | < 3% | 5.6% | less than 3% | less than 3% | less than 3% | less than 3% | 3.9% | less than 3% | < 3% | < 3% | 4% | 4.8% | less than 3% | < 3% |
| OmpT protease variant OmpT D97E (protein) STETLSFTPDNINADISLGTLSGKTKERVYLAEEGGRKVSQLDWKFNNAAIIKGAINWDLMPQISIGAAGWTTLGSRGGNMVDQDWMDSSNPGTWTEESRHPDTQLNYANEFDLNIKGWLLNEPNYRLGLMAGYQESRYSFTARGGSYIYSSEEGFRDDIGSFPNGERAIGYKQRFKMPYIGLTGSYRYEDFELGGTFKYSGWVESSDNDEHYDPGKRITYRSKVKDQNYYSVAVNAGYYVTPNAKVYVEGAWNRVTNKKGNTSLYDHNNNTSDYSKNGAGIENYNFITTAGLKYTF | 3.4% | < 3% | 6.5% | less than 3% | less than 3% | < 3% | 7.2% | less than 3% | less than 3% | less than 3% | less than 3% | 39% | less than 3% | < 3% | < 3% | 49% | 6.9% | less than 3% | < 3% |
| OmpT protease variant OmpT D97Q (protein) STETLSFTPDNINADISLGTLSGKTKERVYLAEEGGRKVSQLDWKFNNAAIIKGAINWDLMPQISIGAAGWTTLGSRGGNMVDQDWMDSSNPGTWTQESRHPDTQLNYANEFDLNIKGWLLNEPNYRLGLMAGYQESRYSFTARGGSYIYSSEEGFRDDIGSFPNGERAIGYKQRFKMPYIGLTGSYRYEDFELGGTFKYSGWVESSDNDEHYDPGKRITYRSKVKDQNYYSVAVNAGYYVTPNAKVYVEGAWNRVTNKKGNTSLYDHNNNTSDYSKNGAGIENYNFITTAGLKYTF | < 3% | < 3% | 4% | less than 3% | less than 3% | < 3% | 4.4% | less than 3% | less than 3% | less than 3% | less than 3% | < 3% | less than 3% | < 3% | < 3% | < 3% | 4.1% | less than 3% | < 3% |
